Measured values reported in article PMC8915792 (Proceedings of the National Academy of Sciences of the …, 2022).

Target: the molecule itself
Test: fluorescence polarisation

B1: HaloTag-ABS3 (human talin-1 C-terminal actin-binding domain, residues 2,293 to 2,541, as a HaloTag fusion protein) (domain or fragment)
chain: TEWVDPEDPTVIAENELLGAAAAIEAAAKKLEQLKPRAKPKEADESLNFEEQILEAAKSIAAATSALVKAASAAQRELVAQGKVGAIPANALDDGQWSQGLISAARMVAAATNNLCEAANAAVQGHASQEKLISSAKQVAASTAQLLVACKVKADQDSEAMKRLQAAGNAVKRASDNLVKAAQKAAAFEEQENETVVVKEKMVGGIAQIIAAQEEMLRKERELEEARKKLAQIRQQQYKFLPSELRDEH
  Kd: 1.9 ± 0.2 µM
